Measured values: patent US20260098102A1 (NATIONAL UNIVERSITY CORPORATION KOBE UNIVERSITY, published 2026)
Numbering of substitutions follows the chain as printed.

B1: human chimeric anti-SIRPA antibody cD13 (antibody, human IgG4 S228P, kappa, F234A L235A, V domains shown)
VH: EVQLVESGGGLVQPGRSLKLSCLASGFTFSDYGMIWVRQAPGKGLEWVASISSSSSYIYYADTVKGRFTISRENAKNTLFLHMTSLRSEDTALYYCARRYYGFNYPFDYWGQGVMVTVSS
VL: DTVLTQSPALAVSLGQRVTISCGASKSVRTYMHWYQQKSGQQPKLLIYSASNLEAGVPSRFSGSGSGTDFTLTIDPVEADDIANYYCQQSNEPPYTFGAGTKLELKR
notes: Human IgG4proFALA heavy chain, human kappa light chain; also called cD13 (IgG4pf); human chimeric antibody D13
B2: humanized anti-SIRPA antibody hD13_H1L3 (antibody, human IgG4 S228P, kappa, F234A L235A, V domains shown)
VH: QVQLVESGGGVVQPGRSLRLSCAASGFTFSDYGMIWVRQAPGKGLEWVASISSSSSYIYYADSVKGRFTISRDNSKNRLYLQMNSLRAEDTAVYYCARRYYGFNYPFDYWGQGTMVTVSS
VL: DTQLTQSPSSLSASVGQRVTITCGASKSVRTYMHWYQQKPGKQPKLLIYSASNLEAGVPSRFSGSGSGTDFTLTISSLQPEDFATYYCQQSNEPPYTFGQGTKLEIKR
notes: hH1 heavy chain (IgG4proFALA) and hL3 kappa light chain; also called hD13_HIL3; HIL3 antibody
B3: humanized anti-SIRPA antibody hD13_H1L4 (antibody, human IgG4 S228P, kappa, F234A L235A, V domains shown)
VH: B2 VH
VL: DTVLTQSPDSLAVSLGQRATINCGASKSVRTYMHWYQQKPGQQPKLLIYSASNLEAGVPSRFSGSGSGTDFTLTISSLQAEDVAVYYCQQSNEPPYTFGQGTKVEIKR
notes: hH1 heavy chain (IgG4proFALA) and hL4 kappa light chain; also called hD13_HIL4; hD13_HIL4h
B4: humanized anti-SIRPA antibody hD13_H2L2 (antibody, human IgG4 S228P, kappa, F234A L235A, V domains shown)
VH: B2 VH with Q1E, R78T
VL: B2 VL with D1A, T2I, Q43A
notes: hH2 heavy chain (IgG4proFALA) and hL2 kappa light chain; also called H2L2 antibody
B5: humanized anti-SIRPA antibody hD13_H2L3 (antibody, human IgG4 S228P, kappa, F234A L235A, V domains shown)
VH: B2 VH with Q1E, R78T
VL: B2 VL
notes: hH2 heavy chain (IgG4proFALA) and hL3 kappa light chain; also called H2L3 antibody

Columns and labels:
human SIRPA_V2 protein [1] = target: T1, human SIRPA_V2 protein (human, UniProt P78324 31-504); experiment: cell-based ELISA on 293α cells expressing FLAG-tagged SIRPA_V2; Abs 490 normalized to FLAG tag [ii]
T1 construct: Expressed on 293α cells from pcDNA3.2 V5-DEST or pFLAG V5-DEST (FLAG-tagged) vectors; also called human SIRPA Variant 2; ECD variant (full-length, amino acids 1 to 504)
Method: (§1) The 293a cells, described in Example 1)-6, were prepared at 5× 10⁵ cells/mL in a 10% FBS-containing DMEM medium. pFLAG V5-DEST-SIRPA_V1-V10, pFLAG V5-DEST-monkey SIRPA, pFLAG V5-DEST-mouse SIRPA, or pFLAG V5-DEST was introduced into the cells using Lipofectamine LTX (Invitrogen), and 100 μL each was aliquoted to a 96-well plate (Corning Incorporated) and cultured overnight in a 10% FBS-containing DMEM medium at 37° C. under a 5% CO₂ condition. The obtained introduced cells were used for cell-based ELISA in a state that they adhered. After the culture supernatant was removed, 50 μL per well of hD13_HIL3, hD13_HIL4h, hD13_H2L2, hD13_H2L3, or cD13 prepared in Examples 6 and 7 or a control antibody was added to each of various SIRPA genes-introduced cells at a final concentration of 0 to 10,000 ng/ml, and the mixture was allowed to stand at 4° C. for one hour. Thereafter, binding to human SIRPA was evaluated in the same manner as in Example 5-1.

mouse SIRPA BALB/c = target: T2, mouse SIRPA BALB/c (mouse (BALB/c), UniProt P97797 35-513); experiment: cell-based ELISA on 293α cells expressing FLAG-tagged mouse SIRPA (BALB/c); Abs 490 normalized to FLAG tag [ii]
T2 construct: FLAG-tagged (pFLAG V5-DEST), on 293α cells
T2 chain: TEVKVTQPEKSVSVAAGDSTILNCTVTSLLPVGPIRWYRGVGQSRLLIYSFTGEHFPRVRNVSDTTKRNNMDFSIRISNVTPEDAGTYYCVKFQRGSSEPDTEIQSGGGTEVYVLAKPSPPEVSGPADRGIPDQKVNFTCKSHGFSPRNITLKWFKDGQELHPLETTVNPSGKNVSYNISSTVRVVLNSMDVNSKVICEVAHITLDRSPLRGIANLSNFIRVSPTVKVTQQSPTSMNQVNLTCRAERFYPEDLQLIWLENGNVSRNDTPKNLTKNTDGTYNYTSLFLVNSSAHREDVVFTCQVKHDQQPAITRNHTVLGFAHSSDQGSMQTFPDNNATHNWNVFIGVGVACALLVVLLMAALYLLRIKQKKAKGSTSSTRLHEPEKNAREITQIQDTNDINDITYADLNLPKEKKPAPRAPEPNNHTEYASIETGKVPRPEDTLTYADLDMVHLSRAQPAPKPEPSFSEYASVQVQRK
Method: as §1

monkey SIRPA protein = target: T3, monkey SIRPA protein (cynomolgus monkey, UniProt P78324 31-504 (human entry)); experiment: blocking cell-based ELISA: peroxidase-labeled CD47-Fc (1 µg/mL) on 293α cells expressing monkey SIRPA; y axis = CD47-Fc signal relative to no antibody (100)
T3 construct: Expressed on 293α cells from pcDNA3.2 V5-DEST or pFLAG V5-DEST vectors; also called cynomolgus monkey SIRPA; cSIRPA
T3 chain: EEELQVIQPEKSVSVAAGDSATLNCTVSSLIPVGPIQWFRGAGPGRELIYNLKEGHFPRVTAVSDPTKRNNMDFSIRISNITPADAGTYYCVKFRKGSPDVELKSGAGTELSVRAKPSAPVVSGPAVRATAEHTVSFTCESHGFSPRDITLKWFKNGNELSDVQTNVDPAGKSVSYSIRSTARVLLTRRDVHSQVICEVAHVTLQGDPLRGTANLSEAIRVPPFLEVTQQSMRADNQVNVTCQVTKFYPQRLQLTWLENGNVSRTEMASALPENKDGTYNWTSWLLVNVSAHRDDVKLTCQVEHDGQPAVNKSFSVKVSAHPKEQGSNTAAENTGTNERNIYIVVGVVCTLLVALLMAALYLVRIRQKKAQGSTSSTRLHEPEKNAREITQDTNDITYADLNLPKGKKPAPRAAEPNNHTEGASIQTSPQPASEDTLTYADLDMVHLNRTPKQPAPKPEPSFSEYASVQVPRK
Method: (§2) After the culture supernatant of human SIRPA or monkey SIRPA expression vector-introduced 293α cells prepared in Example 8)-1 was removed, 50 μL per well of hD13_HIL3, hD13_HIL4h, hD13_H2L2, or hD13_H2L3 diluted with 5% FBS-containing PBS to a final concentration of 0 to 10,000 ng/ml was added to each of pcDNA3.2 V5-DEST-SIRPA_V1, pcDNA3.2 V5-DEST-SIRPA_V2, pcDNA3.2 V5-DEST-monkey SIRPA, and pcDNA3.2 V5-DEST-introduced 293α cells, immediately followed by addition of peroxidase-labeled CD47-Fc prepared with 5% FBS-containing PBS at 1 μg/mL, and the mixture was allowed to stand at 4° C. for one hour. Thereafter, the SIRPA-CD47 binding inhibitory activity was evaluated in the same manner as in 1)-6-3.

human SIRPA_V2 protein [2] = target: T1, human SIRPA_V2 protein; experiment: blocking cell-based ELISA: peroxidase-labeled CD47-Fc (1 µg/mL) on 293α cells expressing SIRPA_V2; y axis = CD47-Fc signal relative to no antibody (100)
Method: as §2
Target sequence in this assay (P78324 other isoform, or with tags, fused parts or gaps limits assumed): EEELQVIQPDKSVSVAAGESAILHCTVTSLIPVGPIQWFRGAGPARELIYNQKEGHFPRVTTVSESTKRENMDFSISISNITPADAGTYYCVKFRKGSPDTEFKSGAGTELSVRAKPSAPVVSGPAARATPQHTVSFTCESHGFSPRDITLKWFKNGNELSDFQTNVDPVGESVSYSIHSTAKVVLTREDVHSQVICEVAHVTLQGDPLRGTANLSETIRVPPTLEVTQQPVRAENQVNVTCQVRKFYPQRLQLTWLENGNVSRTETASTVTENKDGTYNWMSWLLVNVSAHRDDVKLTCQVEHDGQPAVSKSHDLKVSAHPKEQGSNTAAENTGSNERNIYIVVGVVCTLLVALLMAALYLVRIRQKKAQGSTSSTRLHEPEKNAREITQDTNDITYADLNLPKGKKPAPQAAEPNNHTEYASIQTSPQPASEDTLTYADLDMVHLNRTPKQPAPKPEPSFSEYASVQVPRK

Binder	EC50 (read off the curve) (human SIRPA_V2 protein [1])	binding result (mouse SIRPA BALB/c)	IC50 (read off the curve) (monkey SIRPA protein)	IC50 (read off the curve) (human SIRPA_V2 protein [2])
B1	~0.03 µg/mL	no binding (tested: 10000 ng/mL)	~0.9 µg/mL	~0.8 µg/mL
B2	~0.03 µg/mL	no binding (tested: 10000 ng/mL)	~0.6 µg/mL	~0.6 µg/mL
B3	~0.03 µg/mL	no binding (tested: 10000 ng/mL)	~1 µg/mL	~0.7 µg/mL
B4	~0.03 µg/mL	no binding (tested: 10000 ng/mL)	~0.9 µg/mL	~0.8 µg/mL
B5	~0.03 µg/mL	no binding (tested: 10000 ng/mL)	~0.8 µg/mL	~0.7 µg/mL
